Columns and labels:
fusin/CXCR4 receptor [1] = molecular target: fusin/CXCR4 receptor (UniProt P61073); assay: flow cytometry, fluorescently labeled 12G5 on untreated U937 cells
fusin/CXCR4 receptor [2] = molecular target: fusin/CXCR4 receptor (UniProt P61073); assay: flow cytometry on U937 cells, background subtracted from the 12G5 data

Sequence of UniProt P61073 (P61073 whole entry): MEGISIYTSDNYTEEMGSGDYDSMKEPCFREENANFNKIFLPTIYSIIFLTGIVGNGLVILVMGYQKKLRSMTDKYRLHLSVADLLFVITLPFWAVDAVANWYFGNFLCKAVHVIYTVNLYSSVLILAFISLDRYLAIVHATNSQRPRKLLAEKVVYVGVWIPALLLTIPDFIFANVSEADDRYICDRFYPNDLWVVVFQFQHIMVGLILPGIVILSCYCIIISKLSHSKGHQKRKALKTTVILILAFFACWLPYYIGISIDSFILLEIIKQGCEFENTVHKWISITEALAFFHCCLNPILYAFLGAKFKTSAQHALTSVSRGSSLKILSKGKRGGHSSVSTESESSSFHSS

Median Fluorescence (net of isotype control) (fusin/CXCR4 receptor [1]) | median fluorescence (fusin/CXCR4 receptor [2]) | Substance
23.2 | – | anti-fusin/CXCR4 12G5 monoclonal antibody
– | 3.6 | isotype control (antibody)

From patent US20050020528A1
